This note sets out measurements from paper PMC9601868.

ZFP932 KRAB domain (5–76), AviTagged, monobiotinylated (murine), sequence (E9QAG8 5-76): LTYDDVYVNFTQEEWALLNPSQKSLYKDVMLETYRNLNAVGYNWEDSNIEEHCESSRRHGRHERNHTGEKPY

One test addresses ZFP932 KRAB domain (5–76), AviTagged, monobiotinylated (murine). The experiment in a line: SPR; Biacore X100, Sensor Chip CAP; monobiotinylated KRAB domain immobilised (~100 RU); 1 μM Trim28 RBCC injected 60 s, 600 s wash; 10 mM TRIS/HCl pH 8.0, 300 mM NaCl, 0.1 mM TCEP, 0.005% tween 20; kinetic analysis, two-state reaction model.
Consider “Trim28 RBCC (58–418) M298S (from UniProt Q62318 58-418) (domain or fragment)”, for which the Kd – broadly, the concentration at which binding is half-saturated – is 671 nM.

For the substance “Trim28 RBCC (58–418) M304A (from UniProt Q62318 58-418) (domain or fragment)”, the Kd was determined as 24.2 nM. Regarding “Trim28 RBCC (58–418), wild type (from UniProt Q62318 58-418) (domain or fragment)”, the Kd was found to be 14.6 nM. “Trim28 RBCC (58–418) I300A (from UniProt Q62318 58-418) (domain or fragment)” showed a Kd of 26.3 nM.

With “Trim28 RBCC (58–418) M304S (from UniProt Q62318 58-418) (domain or fragment)”, the Kd is 20.3 nM. “Trim28 RBCC (58–418) V294S (from UniProt Q62318 58-418) (domain or fragment)” yielded a Kd of 319 nM. Substance “Trim28 RBCC (58–418) K290A (from UniProt Q62318 58-418) (domain or fragment)” showed a Kd of 37.3 nM.

In turn, “Trim28 RBCC (58–418) K290E (from UniProt Q62318 58-418) (domain or fragment)” yielded a Kd of 132 nM.

The substance “Trim28 RBCC (58–418) M298A (from UniProt Q62318 58-418) (domain or fragment)” had a Kd of 324 nM. Same read-out and setting: the same measure for “Trim28 RBCC (58–418) I300S (from UniProt Q62318 58-418) (domain or fragment)”: 35.8 nM; for “Trim28 RBCC (58–418) R312A (from UniProt Q62318 58-418) (domain or fragment)”: 27.8 nM; for “Trim28 RBCC (58–418) K305A (from UniProt Q62318 58-418) (domain or fragment)”: 31.1 nM. With “Trim28 RBCC (58–418) V294A (from UniProt Q62318 58-418) (domain or fragment)”, the Kd came out at 113 nM. “Trim28 RBCC (58–418) R312E (from UniProt Q62318 58-418) (domain or fragment)” displayed a Kd of 212 nM.

For the substance “Trim28 RBCC (58–418) K297A (from UniProt Q62318 58-418) (domain or fragment)”, the Kd worked out at 54.1 nM.

The target is the same in a further test. The experiment in a line: SPR; Biacore X100, Sensor Chip CAP; monobiotinylated KRAB domain immobilised; concentration series of Trim28 RBCC, 60 s injections; 10 mM TRIS/HCl pH 8.0, 300 mM NaCl, 0.1 mM TCEP, 0.005% tween 20; equilibrium analysis. In general terms: In SPR one partner is held on a chip, and binding of the other changes the refractive index at the surface.
“Trim28 RBCC (58–418) L301S (from UniProt Q62318 58-418) (domain or fragment)” yielded a Kd of 30800 nM. For “Trim28 RBCC (58–418) K305E (from UniProt Q62318 58-418) (domain or fragment)”, the dissociation constant (Kd) was 15900 nM. Consider “Trim28 RBCC (58–418) L301A (from UniProt Q62318 58-418) (domain or fragment)”, for which the Kd turned out to be 6500 nM.
